# IntAct's records for PubMed 21081649
# B1: NAD-dependent protein deacetylase sirtuin-2 (Homo sapiens), Q8IXJ6-2 (parent)
# chain: MDFLRNLFSQTLSLGSQKERLLDELTLEGVARYMQSERCRRVICLVGAGISTSAGIPDFRSPSTGLYDNLEKYHLPYPEAIFEISYFKKHPEPFFALAKELYPGQFKPTICHYFMRLLKDKGLLLRCYTQNIDTLERIAGLEQEDLVEAHGTFYTSHCVSASCRHEYPLSWMKEKIFSEVTPKCEDCQSLVKPDIVFFGESLPARFFSCMQSDFLKVDLLLVMGTSLQVQPFASLISKAPLSTPRLLINKEKAGQSDPFLGMIMGLGGGMDFDSKKAYRDVAWLGECDQGCLALAELLGWKKELEDLVRREHASIDAQSGAGVPNPSTSASPKKSPPPAKDEARTTEREKPQ
# Variants of: B1
# Details: with h4_human H4C16, P62805
row,Variant,effect of a mutation on the interaction
1,MDFARNLFSQTASLGSQKERLLDELTLEGVARYMQSERCRRVICLVGAGISTSAGIPDFRSPSTGLYDNLEKYHLPYPEAIFEISYFKKHPEPFFALAKELYPGQFKPTICHYFMRLLKDKGLLLRCYTQNIDTLERIAGLEQEDLVEAYGTFYTSHCVSASCRHEYPLSWMKEKIFSEVTPKCEDCQSLVKPDIVFFGESLPARFFSCMQSDFLKVDLLLVMGTSLQVQPFASLISKAPLSTPRLLINKEKAGQSDPFLGMIMGLGGGMDFDSKKAYRDVAWLGECDQGCLALAELLGWKKELEDLVRREHASIDAQSGAGVPNPSTSASPKKSPPPAKDEARTTEREKPQ [L4A;L12A;H150Y],increasing interaction
